From patent US20100068215A1 (published 2010)
Where two headings read alike, the source gives them in different places.

B1: GDF11 (ligand, UniProt O95390 299-407, looked up)
chain: NLGLDCDEHSSESRCCRYPLTVDFEAFGWDWIIAPKRYKANYCSGQCEYMFMQKYPHTHLVQQANPRGSAGPCCTPTKMSPINMLYFNDKQQIIYGKIPGMVVDRCGCS
notes: also called Growth and Differentiation Factor-11; BMP11
B2: ActRIIB(L79 25-131)-hFc (Fc fusion)
chain: ETRECIYYNANWELERTNQSGLERCEGEQDKRLHCYASWRNSSGTIELVKKGCWLDDFNCYDRQECVATEENPQVYFCCCEGNFCNERFTHLPEAGGPEVTYEPPPTGGG
notes: also called ActRIIB(25-131)-hFc; not shown: human Fc domain (hFc)

Columns and labels:
ActRIIB(L79 25-131)-hFc = target: B2; assay: Biacore, steady-state affinity fit
Experimental: (§1) The affinity of GDF Traps and other ActRIIB-hFc proteins for several ligands was evaluated in vitro with a Biacore™ instrument. Kd values were obtained by steady-state affinity fit due to the very rapid association and dissociation of the complex, which prevented accurate determination of kₒₙ and koff.

GDF11 [1] = target: B1; assay: cell-based or functional assay
Activin A [2] = target: T1, Activin A (UniProt P08476 311-426); assay: cell-based or functional assay
T1 sequence (looked up): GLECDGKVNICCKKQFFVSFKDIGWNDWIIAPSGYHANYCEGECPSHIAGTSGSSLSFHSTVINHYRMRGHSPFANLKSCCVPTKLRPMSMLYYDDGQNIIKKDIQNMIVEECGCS

Activin B = target: T2, Activin B (UniProt P09529 293-407); assay: Biacore, steady-state affinity fit
T2 sequence (looked up): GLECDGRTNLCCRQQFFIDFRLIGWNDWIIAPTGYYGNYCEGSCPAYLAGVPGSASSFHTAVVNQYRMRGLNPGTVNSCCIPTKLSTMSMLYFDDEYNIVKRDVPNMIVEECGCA
Experimental: as §1

Activin A [3] = target: T1, Activin A; assay: Biacore, steady-state affinity fit
Experimental: as §1

GDF11 [4] = target: B1; assay: Biacore, steady-state affinity fit
Experimental: as §1

GDF11 [5] = target: B1; assay: Biacore; ActRIIB-Fc captured by anti-hFc antibody, ligand injected
Experimental: (§2) Binding of certain ActRIIB-Fc proteins and GDF Traps to ligands was tested in a BiaCore™ assay.
(§3) The ActRIIB-Fc variants or wild-type protein were captured onto the system using an anti-hFc antibody. Ligands were injected and flowed over the captured receptor proteins.

GDF8 = target: T3, GDF8 (UniProt O14793 267-375); assay: as above
T3 construct: also called myostatin; Growth and Differentiation Factor-8
T3 sequence (looked up): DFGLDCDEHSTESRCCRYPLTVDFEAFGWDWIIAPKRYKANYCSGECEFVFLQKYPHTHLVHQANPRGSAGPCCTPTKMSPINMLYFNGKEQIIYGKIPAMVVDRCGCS
Experimental: as §2, §3

Activin A [6] = target: T1, Activin A; assay: as above
Experimental: as §2, §3

| Binder | IC50 (ng/mL), A-204 reporter gene assay, conditioned media (GDF11 [1]) [ng/mL] | IC50 (ng/mL), A-204 reporter gene assay, conditioned media (Activin A [2]) [ng/mL] | Kd (GDF8) [pM] | koff (GDF8) [s⁻¹] | Kd (Activin A [6]) [pM] | koff (Activin A [6]) [s⁻¹] | kon (Activin A [6]) [M⁻¹ s⁻¹] | other results |
| --- | --- | --- | --- | --- | --- | --- | --- | --- |
| B1 |  |  |  |  |  |  |  | Kd (ActRIIB(L79 25-131)-hFc): 31 pM |
| ActRIIB(24-131)-hFc (Fc fusion, not shown: a dimerising Fc or GST) AETRECIYYNANWELERTNQSGLERCEGEQDKRLHCYASWRNSSGTIELVKKGCWLDDFNCYDRQECVATEENPQVYFCCCEGNFCNERFTHLPEAGGPEVTYEPPPTGGG | 69 | 105 |  |  |  |  |  |  |
| ActRIIB(22-131)-hFc (Fc fusion, not shown: a dimerising Fc or GST) GEAETRECIYYNANWELERTNQSGLERCEGEQDKRLHCYASWRNSSGTIELVKKGCWLDDFNCYDRQECVATEENPQVYFCCCEGNFCNERFTHLPEAGGPEVTYEPPPTGGG | 71 | 100 |  |  |  |  |  |  |
| ActRIIB(20-132)-hFc (Fc fusion, not shown: a dimerising Fc or GST) GRGEAETRECIYYNANWELERTNQSGLERCEGEQDKRLHCYASWRNSSGTIELVKKGCWLDDFNCYDRQECVATEENPQVYFCCCEGNFCNERFTHLPEAGGPEVTYEPPPTAGGG | 87 | 32 |  |  |  |  |  |  |
| B2 |  |  |  |  |  |  |  | Kd (Activin B): 12 pM; Kd (Activin A [3]): 18 pM |
| ActRIIB(23-131)-hFc (Fc fusion, not shown: a dimerising Fc or GST) EAETRECIYYNANWELERTNQSGLERCEGEQDKRLHCYASWRNSSGTIELVKKGCWLDDFNCYDRQECVATEENPQVYFCCCEGNFCNERFTHLPEAGGPEVTYEPPPTGGG | 60 | 43 |  |  |  |  |  |  |
| ActRIIB(20-134)-hFc (Fc fusion) GRGEAETRECIYYNANWELERTNQSGLERCEGEQDKRLHCYASWRNSSGTIELVKKGCWLDDFNCYDRQECVATEENPQVYFCCCEGNFCNERFTHLPEAGGPEVTYEPPPTAPTGGGTHTCPPCPAPELLGGPSVFLFPPKPKDTLMISRTPEVTCVVVDVSHEDPEVKFNWYVDGVEVHNAKTKPREEQYNSTYRVVSVLTVLHQDWLNGKEYKCKVSNKALPVPIEKTISKAKGQPREPQVYTLPPSREEMTKNQVSLTCLVKGFYPSDIAVEWESNGQPENNYKTTPPVLDSDGSFFLYSKLTVDKSRWQQGNVFSCSVMHEALHNHYTQKSLSLSPGK | 45 | 22 | 93.5 | 3.45e-05 | 26.8 | 0.000159 | 5.94e+06 | Kd (Activin B): 12 pM; Kd (GDF11 [4]): 36 pM; Kd (Activin A [3]): 16 pM; Kd (GDF11 [5]): 84.2 pM; koff (GDF11 [5]): 0.000113 s⁻¹ |
| ActRIIB(20-128)-hFc (Fc fusion, not shown: a dimerising Fc or GST) GRGEAETRECIYYNANWELERTNQSGLERCEGEQDKRLHCYASWRNSSGTIELVKKGCWLDDFNCYDRQECVATEENPQVYFCCCEGNFCNERFTHLPEAGGPEVTYEPGGG | 130 | 158 |  |  |  |  |  |  |
| ActRIIB(A24N 20-134)-hFc (Fc fusion, also called the A24N variant; not shown: human Fc domain (hFc)) GRGENETRECIYYNANWELERTNQSGLERCEGEQDKRLHCYASWRNSSGTIELVKKGCWLDDFNCYDRQECVATEENPQVYFCCCEGNFCNERFTHLPEAGGPEVTYEPPPTAPTGGG |  |  |  |  | 104 | 0.000346 | 3.34e+06 | Kd (GDF11 [5]): 51.9 pM; koff (GDF11 [5]): 6.35e-05 s⁻¹ |
| ActRIIB(P129S, P130R 20-134)-hFc (Fc fusion, kept as two molecules; not shown: human Fc domain (hFc)) GRGEAETRECIYYNANWELERTNQSGLERCEGEQDKRLHCYASWRNSSGTIELVKKGCWLDDFNCYDRQECVATEENPQVYFCCCEGNFCNERFTHLPEAGGPEVTYEPSRTAPTGGG |  |  | 1670 | 0.00018 | 83.1 | 0.000417 | 5.02e+06 |  |
| ActRIIB(K74A 20-134)-hFc (Fc fusion, not shown: human Fc domain (hFc)) GRGEAETRECIYYNANWELERTNQSGLERCEGEQDKRLHCYASWRNSSGTIELVAKGCWLDDFNCYDRQECVATEENPQVYFCCCEGNFCNERFTHLPEAGGPEVTYEPPPTAPTGGG |  |  | 71.8 | 2.03e-05 |  |  |  |  |
| ActRIIB(R64K 20-134)-hFc (Fc fusion, not shown: human Fc domain (hFc)) GRGEAETRECIYYNANWELERTNQSGLERCEGEQDKRLHCYASWKNSSGTIELVKKGCWLDDFNCYDRQECVATEENPQVYFCCCEGNFCNERFTHLPEAGGPEVTYEPPPTAPTGGG |  |  | 210 | 4.71e-05 | 47.6 | 0.000325 | 6.82e+06 | Kd (GDF11 [5]): 35.6 pM; koff (GDF11 [5]): 2.41e-05 s⁻¹ |
| ActRIIB(R64K 20-129)-hFc (Fc fusion, not shown: human Fc domain (hFc)) GRGEAETRECIYYNANWELERTNQSGLERCEGEQDKRLHCYASWKNSSGTIELVKKGCWLDDFNCYDRQECVATEENPQVYFCCCEGNFCNERFTHLPEAGGPEVTYEPPGGG |  |  | 2150 | 0.000209 | 84.1 | 0.000628 | 7.46e+06 |  |
| ActRIIB(21-131)-hFc (Fc fusion, not shown: a dimerising Fc or GST) RGEAETRECIYYNANWELERTNQSGLERCEGEQDKRLHCYASWRNSSGTIELVKKGCWLDDFNCYDRQECVATEENPQVYFCCCEGNFCNERFTHLPEAGGPEVTYEPPPTGGG | 121 | 325 |  |  |  |  |  |  |
| ActRIIB(20-131)-hFc (Fc fusion, not shown: a dimerising Fc or GST) GRGEAETRECIYYNANWELERTNQSGLERCEGEQDKRLHCYASWRNSSGTIELVKKGCWLDDFNCYDRQECVATEENPQVYFCCCEGNFCNERFTHLPEAGGPEVTYEPPPTGGG | 183 | 201 |  |  |  |  |  | IC50 (ng/mL), A-204 reporter gene assay, conditioned media (GDF11 [1]; record 2): 120 ng/mL; IC50 (ng/mL), A-204 reporter gene assay, conditioned media (Activin A [2]; record 2): 44 ng/mL |
